In paper PMC10653834, “Conformational variability of cyanobacterial ChlI, the AAA+ motor of magnesium chelatase involved in chlorophyll biosynthesis” (mBio, 2023):

Assays:
ChlI [1] = molecular target: T1, ChlI (Nostoc sp. PCC 7120 = FACHB-418, UniProt P58571); experiment: cryo-EM structure of hexamers under turnover; type: binding; details: ADP formed from 10 mM ATP, 50 mM MgCl2, pH 7.5; nucleotide pocket at monomer interfaces
T1 construct: full length, N-terminal His6 tag (kept), pET15b, E. coli LOBSTR; approximately 40 kDa; ATP-induced hexamer (also pentamer); residues 1-13 and 354-374 not modelled

ChlI [2] = molecular target: T1, ChlI; experiment: cryo-EM structure of hexamers under turnover; malachite green ATPase assay; type: binding; details: 10 mM ATP, 50 mM MgCl2, pH 7.5; nucleotide pocket at monomer interfaces; hydrolysis at 37 °C
[3] = molecular target: the molecule itself; experiment: mass photometry; ChlI incubated at 0.5 mg/mL in Tris buffer (20 mM Tris, 200 mM NaCl, pH 7.5) alone or with 50 mM MgCl2, no nucleotide; diluted before measurement
[4] = molecular target: the molecule itself; experiment: cryo-EM structure; 0.5 mg/mL ChlI with 10 mM ATP, 50 mM MgCl2, 0.05% LMNG, 1 mM DTT; no symmetry applied
[5] = molecular target: the molecule itself; experiment: mass photometry; ChlI incubated at 0.5 mg/mL in Tris buffer with 10 mM ADP and 50 mM MgCl2; diluted before measurement

Nc1ncnc2c1ncn2[C@@H]1O[C@H](COP(=O)(O)OP(=O)(O)O)[C@@H](O)[C@H]1O [ADP]
cryo-EM structure of hexamers under turnover (ChlI [1]): conformation B has ATP bound in four monomers and ADP in two

Nc1ncnc2c1ncn2[C@@H]1O[C@H](COP(=O)(O)OP(=O)(O)OP(=O)(O)O)[C@@H](O)[C@H]1O [ATP]
cryo-EM structure of hexamers under turnover; malachite green ATPase assay (ChlI [2]): Conformation A is characterized by ATP molecules bound in five monomers and ADP in one

B1: Nostoc sp. PCC 7120 ChlI, motor (AAA+) subunit of magnesium chelatase (enzyme, UniProt P58571 1-374, looked up)
chain: MTPTAQTTASARRVVFPFTAIVGQEEMKLALLLNVIDPKIGGVMIMGDRGTGKSTTIRALADLLPEIPVVANDPFNSDPSDPDLMSDEVRQKSGTGAEIPIEFKKVQMVDLPLGATEDRVCGTIDIEKALSEGVKAFEPGLLAKANRGILYVDEVNLLDDHLVDVLLDSAASGWNTVEREGISIRHPARFVLVGSGNPEEGELRPQLLDRFGMHAEIHTVKEPALRVQIVEQRSEFDQNPPTFLEKYNPEQTALQKKIVEAQKLLPEVKLDYDLRVKISEVCSELDVDGLRGDIVTNRAAKALTAYEGRTEVTVDDIRRVITLCLRHRLRKDPLESIDSGYKVEKVFARIFGVELLEDDSSQKNGAGQIKTGVR
notes: Magnesium chelatase subunit ChlI of Nostoc sp; PCC 7120, gene all0152, amplified from genomic DNA; The printed forward primer places ATG and six His codons before codon 2 (ACT CCA ACA ...); the reverse primer includes the stop codon; Model building counts residues 1-374; Oligomeric state depends on the nucleotide (monomers/dimers without; pentamers and hexamers with ATP and MgCl2); also called …
stoichiometry N [3]: 2
stoichiometry N [4]: 5
stoichiometry N [5]: 6
